This sample holds only a part of the variants without activity.
Tests used:
biotinyl-Phe-oxazolone = experiment: self-aminoacylation, catalytic enhancement (BFO) (fold over background); higher = more active; k-Seq, kA / k0A0; sequences stand for … in GGGAAUGGAUCCACAUCUACGAAUUC…UUCACUGCAGACUUGACGAAGCUG
In short: (§1)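 Each biotinyl-aminoacyl-oxazolone, at 2–1250 μM, was incubated with mutagenized RNA pools (0.43 μM) carrying a 21-nt variable region. The 50 μL reactions contained HEPES/NaCl/KCl/MgCl2/CaCl2 buffer with 5% acetonitrile at pH 6.9–7.0 and ran for 90 minutes at room temperature. After streptavidin capture, RNA was measured by qPCR in triplicate and by Illumina sequencing, and catalytic enhancement was calculated as median kA over the uncatalyzed rate from a pseudo-first-order fit of per-sequence fraction reacted.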

biotinyl-Ile-oxazolone = experiment: self-aminoacylation, catalytic enhancement (BIO) (fold over background); higher = more active; k-Seq, kA / k0A0; sequences stand for … in GGGAAUGGAUCCACAUCUACGAAUUC…UUCACUGCAGACUUGACGAAGCUG
In short: as §1

biotinyl-Met-oxazolone = experiment: self-aminoacylation, catalytic enhancement (BMO) (fold over background); higher = more active; k-Seq, kA / k0A0; sequences stand for … in GGGAAUGGAUCCACAUCUACGAAUUC…UUCACUGCAGACUUGACGAAGCUG
In short: as §1

biotinyl-Val-oxazolone = experiment: self-aminoacylation, catalytic enhancement (BVO) (fold over background); higher = more active; k-Seq, kA / k0A0; sequences stand for … in GGGAAUGGAUCCACAUCUACGAAUUC…UUCACUGCAGACUUGACGAAGCUG
In short: as §1

biotinyl-Leu-oxazolone = experiment: self-aminoacylation, catalytic enhancement (BLO) (fold over background); higher = more active; k-Seq, kA / k0A0; sequences stand for … in GGGAAUGGAUCCACAUCUACGAAUUC…UUCACUGCAGACUUGACGAAGCUG
In short: as §1

biotinyl-Trp-oxazolone = experiment: self-aminoacylation, catalytic enhancement (BWO) (fold over background); higher = more active; k-Seq, kA / k0A0; sequences stand for … in GGGAAUGGAUCCACAUCUACGAAUUC…UUCACUGCAGACUUGACGAAGCUG
In short: as §1

Sequence	self-aminoacylation (biotinyl-Phe-oxazolone)	self-aminoacylation (biotinyl-Ile-oxazolone)	self-aminoacylation (biotinyl-Met-oxazolone)	self-aminoacylation (biotinyl-Val-oxazolone)	self-aminoacylation (biotinyl-Leu-oxazolone)	self-aminoacylation (biotinyl-Trp-oxazolone)
AUUAACCUAGGCCAUCGGGUG [Fam2.2 aminoacylation ribozyme variant]	15.1	2.31	3.21	2.45	4.62	3.52
AUUAACCUAGGUCAUCGGGUA [Fam2.2 aminoacylation ribozyme variant]	262	17.7	33.2	13.9	46.4	20.3
AUUAACCUAGGUCUUCGGGUG [Fam2.2 aminoacylation ribozyme variant]	17.9	2.64	2.98	2.73	3.58	2.95
AUUAACCUCGUCAUCGAGUGA [Fam2.1 aminoacylation ribozyme variant]	3.89	2.33	3.27	2.25	2.82	4.68
AUUAACCUGGUCAUCAAGUGA [Fam2.1 aminoacylation ribozyme variant]	4.41	1.76	3.1	1.85	2.94	3.18
AUUAACCUGGUCAUCGACUGA [Fam2.1 aminoacylation ribozyme variant]	0.674	0.842	0.801	0.746	0.938	0.612
AUUAACCUGGUCAUCGAGUCA [Fam2.1 aminoacylation ribozyme variant]	0.5	0.698	0.763	0.711	0.662	0.405
AUUAACCUGGUCAUCGAUUGA [Fam2.1 aminoacylation ribozyme variant]	0.76	0.963	0.959	0.818	0.88	1.15
AUUAACCUGGUCAUUGAGUGA [Fam2.1 aminoacylation ribozyme variant]	53.1	4.38	9.39	4.05	9.89	12
AUUAACCUGGUCUUCGAGUGA [Fam2.1 aminoacylation ribozyme variant]	13	2.4	4.3	2.71	4.66	6.87
AUUAACCUGGUUAUCGAGUGA [Fam2.1 aminoacylation ribozyme variant]	41.7	4.13	8.32	3.81	9.67	10.7
AUUAACCUGUUCAUCGAGUGA [Fam2.1 aminoacylation ribozyme variant]	15.8	2.4	4.16	2.4	4.93	5.29
AUUAAUCUAGGUCAUCGGGUG [Fam2.2 aminoacylation ribozyme variant]	15	2.73	3.43	2.72	4.65	4.05
AUUACACUAGUCAUCGAGUGA [Fam2.1 aminoacylation ribozyme variant]	16.9	3.05	4.79	2.51	5.19	6.55
AUUACACUGCUCAUCGAGUGA [Fam2.1 aminoacylation ribozyme variant]	1.51	1.55	1.8	1.61	1.72	2.31
AUUACACUGGGCAUCGAGUGA [Fam2.1 aminoacylation ribozyme variant]	27.1	3.53	5.92	3.44	6.5	7.85
AUUACACUGGUCAACGAGUGA [Fam2.1 aminoacylation ribozyme variant]	22.6	2.78	5.3	2.79	5.07	7.54
AUUACACUGGUCAUCGAAUGA [Fam2.1 aminoacylation ribozyme variant]	0.652	1.12	0.931	1.25	0.978	1.15
AUUACACUGGUCUUCGAGUGA [Fam2.1 aminoacylation ribozyme variant]	18.8	2.75	3.75	2.87	4.42	6.04
AUUACACUGGUGAUCGAGUGA [Fam2.1 aminoacylation ribozyme variant]	20.9	2.33	4.88	2.42	4.21	5.92
AUUACACUGUUCAUCGAGUGA [Fam2.1 aminoacylation ribozyme variant]	3.06	2.01	3.76	2.17	2.97	4.78
AUUACCAUGAUCAUCGAGUGA [Fam2.1 aminoacylation ribozyme variant]	56.1	5.54	11.1	5.53	11.6	14.6

Sequence	self-aminoacylation (biotinyl-Phe-oxazolone)	self-aminoacylation (biotinyl-Ile-oxazolone)	self-aminoacylation (biotinyl-Met-oxazolone)	self-aminoacylation (biotinyl-Val-oxazolone)	self-aminoacylation (biotinyl-Leu-oxazolone)	self-aminoacylation (biotinyl-Trp-oxazolone)
AUUACCAUGGACAUCGAGUGA [Fam2.1 aminoacylation ribozyme variant]	24.1	2.91	6.51	3.14	6.81	8.17
AUUACCAUGGCCAUCGAGUGA [Fam2.1 aminoacylation ribozyme variant]	2.77	1.83	2.67	2.27	3.1	3.98
AUUACCAUGGUAAUCGAGUGA [Fam2.1 aminoacylation ribozyme variant]	50.3	3.78	8.72	3.89	8.44	10.7
AUUACCAUGGUCAACGAGUGA [Fam2.1 aminoacylation ribozyme variant]	32.6	4.28	7.33	4.12	7.89	10
AUUACCAUGGUCAUCGAGUGU [Fam2.1 aminoacylation ribozyme variant]	4.69	2.55	4.53	2.78	4.6	6.03
AUUACCAUGUUCAUCGAGUGA [Fam2.1 aminoacylation ribozyme variant]	36.4	4.04	7.52	3.79	7.2	9.17
AUUACCCACGUCAUCGAGUGA [Fam2.1 aminoacylation ribozyme variant]	15.6	2.46	4.44	2.9	4.38	4.53
AUUACCCAGGACAUCGAGUGA [Fam2.1 aminoacylation ribozyme variant]	56.4	3.56	8.33	3.9	7.26	8.66
AUUACCCAGGGCAUCGAGUGA [Fam2.1 aminoacylation ribozyme variant]	21.4	3.27	6.06	3.57	6.33	6.92
AUUACCCAGGUCAACGAGUGA [Fam2.1 aminoacylation ribozyme variant]	24.9	3.57	7.03	3.76	6.2	7.71
AUUACCCAGGUCAUAGAGUGA [Fam2.1 aminoacylation ribozyme variant]	37.5	4.85	10.7	5.27	9.64	11.3
AUUACCCAGGUCAUCGAGUAA [Fam2.1 aminoacylation ribozyme variant]	1.09	1.49	1.54	1.06	1.16	1.57
AUUACCCAGGUCAUCGAGUGA [Fam2.1 aminoacylation ribozyme variant]	22.8	3.21	5.79	3.55	6.08	6.89
AUUACCCCGCUCAUCGAGUGA [Fam2.1 aminoacylation ribozyme variant]	6.93	1.16	1.89	1.73	1.99	1.17
AUUACCCCGGACAUCGAGUGA [Fam2.1 aminoacylation ribozyme variant]	19.6	2.38	4.74	2.48	4.04	5.47
AUUACCCCGGCCAUCGAGUGA [Fam2.1 aminoacylation ribozyme variant]	20.7	2.68	4.03	4.34	5.86	5.24
AUUACCCCGGUAAUCGAGUGA [Fam2.1 aminoacylation ribozyme variant]	26.7	2.73	5.18	2.85	4.59	5.41
AUUACCCCGGUCACCGAGUGA [Fam2.1 aminoacylation ribozyme variant]	95.8	5.59	12.7	4.77	13	12.3
AUUACCCCGGUCAUCGAGUAA [Fam2.1 aminoacylation ribozyme variant]	5.28	1.53	1.2	1.26	1.9	2.01
AUUACCCCGGUCAUCGAGUCA [Fam2.1 aminoacylation ribozyme variant]	1.3	1.24	0.928	0.988	1.06	0.734
AUUACCCCGGUCUUCGAGUGA [Fam2.1 aminoacylation ribozyme variant]	29.3	3.2	4.71	3.4	4.72	6.46

Reference: the supplement of paper PMC9233669
